For assay [1], the target named is T1, deglycosylated V domain of human CD33 (human, UniProt P20138 18-139, limits assumed, deglycosylated by PNGase).
T1 construct: whole entry named; also called deglycosylated V CD33
Kind of assay: SPR, Fab captured, 37 C.
Procedure: (§1) Kinetics and affinity of a series of Fab fragments of anti-CD33 antibodies with different CD33 variants (human CD33 ECD, cyno CD33 ECD, V-domain of human CD33, C-domain or human CD33 and selected CD33 SNPs) were assessed by surface plasmon resonance using Biacore 8K instrument (GE Healthcare). Anti-Fab antibody was immobilized on a CMS chip using standard amine coupling chemistry. CD33 FABs were captured on the anti-Fab chip at a density of ˜100 RU. Solutions containing different concentrations of soluble monomeric CD33 or its domains were injected over the captured FABs and control surfaces at 30 μl/min at 37° C. Surfaces were regenerated between cycles by quick injection of 10 mM glycine, pH 1.8. To obtain kinetic rate constants double-referenced data were fit to a 1:1 interaction model using Biacore 8K Evaluation software (GE Healthcare). The equilibrium binding constant KD was determined by the ratio of binding rate constants kd/kₐ.
The ability of anti-CD33 antibodies to recognize glycosylated CD33 was assayed. […] De-glycosylation status was confirmed by a shift on SDS-PAGE and MS.

Assay [2] addresses T2, human CD33 extracellular domain (human, UniProt P20138 18-259).
T2 construct: also called human CD33 ECD; hCD33
Kind of assay: SPR, Fab captured, 37 C.
Procedure: as §1
(§2) Affinity of 29 Fab fragments binding to human and cyno CD33 ECD were assayed by Biacore analysis.

For assay [3], the target named is T2, human CD33 extracellular domain. As to the kind of experiment: SPR, Fab captured, 37 C. The source holds these as a separate data set.
Procedure: as §1
Assay [4] has the same target. Kind of assay: SPR, Fab captured, 37 C. The source holds these as a separate data set.
Procedure: as §1, §2
For assay [5] the target is unchanged. Kind of assay: SPR, Fab captured, 37 C. The source holds these as a separate data set.
Procedure: as §1, §2
For assay [6] the target is unchanged. As to the kind of experiment: BLI, IgG on sensor.
Procedure: Briefly, ForteBio affinity measurements were performed by loading IgGs on-line onto AHC sensors. Sensors were equilibrated off-line in assay buffer for 30 min and then monitored on-line for 60 seconds for baseline establishment. Sensors with loaded IgGs were exposed to 100 nM antigen for 3 minutes, and afterwards were transferred to assay buffer for 3 min for off-rate measurement. All kinetics were analyzed using the 1:1 binding model.

We go through four molecules from patent US20200376034A1 (DRAGONFLY THERAPEUTICS, published 2020).

B1: ADI-10163 Fab (Fab, V domains shown)
VH: QVQLQESGPGLVKPSQTLSLTCTVSGGSISSGGYYWSWIRQHPGKGLEWIGSIYYSGSTYYNPSLKSRVTISVDTSKNQFSLKLSSVTAADTAVYYCARDRLDYSYNYGMDVWGQGTTVTVSS
VL: DIQMTQSPSSLSASVGDRVTITCRASQSISSYLNWYQQKPGKAPKLLIYGASSLQSGVPSRFSGSGSGTDFTLTISSLQPEDFATYYCQQVYSAPFTFGGGTKVEIK
notes: Fab fragment; also called Ab17
As for B1, the koff was 0.256 s⁻¹ in assay [1]; 0.0275 s⁻¹ in assay [2]; 0.0275 s⁻¹ in assay [3]; 0.0275 s⁻¹ in assay [4]; 0.0275 s⁻¹ in assay [5]. In addition, the kon in assay [1] was 1.68e+06 M⁻¹ s⁻¹; in assay [2], 515000 M⁻¹ s⁻¹; in assay [3], 515000 M⁻¹ s⁻¹; in assay [4] it was 515000 M⁻¹ s⁻¹; in assay [5] it was 515000 M⁻¹ s⁻¹.

B2: ADI-10163 IgG (antibody, V domains shown)
VH: QVQLQESGPGLVKPSQTLSLTCTVSGGSISSGGYYWSWIRQHPGKGLEWIGSIYYSGSTYYNPSLKSRVTISVDTSKNQFSLKLSSVTAADTAVYYCARDRLDYSYNYGMDVWGQGTTVTVSS
VL: DIQMTQSPSSLSASVGDRVTITCRASQSISSYLNWYQQKPGKAPKLLIYGASSLQSGVPSRFSGSGSGTDFTLTISSLQPEDFATYYCQQVYSAPFTFGGGTKVEIK
notes: IgG; also called Ab17
B2: in assay [6], the koff is 0.00453 s⁻¹ and the kon came to 665000 M⁻¹ s⁻¹.

B3: ADI-10173 Fab (Fab, V domains shown)
VH: QVQLVQSGAEVKKPGASVKVSCKASGYTFTSYYMHWVRQAPGQGLEWMGIINPSGGSTTYAQKFQGRVTMTRDTSTSTVYMELSSLRSEDTAVYYCAREAADGFVGERYFDLWGRGTLVTVSS
VL: not shown
notes: Fab fragment; also called Ab22
In the case of B3, the off-rate (koff) is 0.131 s⁻¹ in assay [1]; 0.0125 s⁻¹ in assay [2]; 0.0125 s⁻¹ in assay [3]; 0.0125 s⁻¹ in assay [4]; 0.0125 s⁻¹ in assay [5]. In addition, the kon stood at 674000 M⁻¹ s⁻¹ in assay [1]; 212000 M⁻¹ s⁻¹ in assay [2]; 212000 M⁻¹ s⁻¹ in assay [3]; 212000 M⁻¹ s⁻¹ in assay [4]; 212000 M⁻¹ s⁻¹ in assay [5].

B4: ADI-10173 IgG (antibody, V domains shown)
VH: QVQLVQSGAEVKKPGASVKVSCKASGYTFTSYYMHWVRQAPGQGLEWMGIINPSGGSTTYAQKFQGRVTMTRDTSTSTVYMELSSLRSEDTAVYYCAREAADGFVGERYFDLWGRGTLVTVSS
VL: not shown
notes: IgG; also called Ab22
For the molecule B4, in assay [6], the koff was 0.00314 s⁻¹ and the kon came out at 324000 M⁻¹ s⁻¹.
